Data: paper PMC9165289, “Theranostic PSMA ligands with optimized backbones for intraoperative multimodal imaging and photodynamic therapy of prostate cancer” (European Journal of Nuclear Medicine and Molecular Imaging, 2022)
Read-outs that look alike come from different tables or passages of the source.

Experiments:
[1] = tested on: LS174T-PSMA and LS174T wildtype xenografts; experiment: ex vivo biodistribution of 111In-labeled ligands; design: species or system BALB/c nude mice; conditions: 0.3 nmol, 2 h p.i.
Method: (§1) All animal experiments were approved by the institutional Animal Welfare Committee of the Radboud University Medical Center and were conducted in accordance to the guidelines of the Revised Dutch Act on Animal Experimentation. Animal experiments were performed in 8–10 weeks old male BALB/c nude mice (Janvier). The mice were housed in individually ventilated cages (Blue line IVC, 3–5 mice per cage), under standard non-sterile conditions with cage enrichment present. There was free access to chlorophyll-free animal chow (Sniff Voer) and water. Mice were subcutaneously inoculated with 3.0 × 10^6 LS174T-PSMA cells in the right flank and 1.5 × 10^6 LS174T WT cells in the left flank (diluted in 200-µl RPMI 1640 medium). When xenografts were approximately 0.5 cm^3 (10–14 days after injection), mice were block-randomized into groups based on tumor size. The researchers were not blinded for the experimental groups.
(§2) Mice were intravenously injected with 0.3 nmol PSMA ligand, labeled with 10 MBq ^111In (molar activity 33.3 MBq/nmol) in PBS + 0.5% (w/v) BSA. For the ex vivo biodistribution, five groups (one group for each ligand) of four mice were included. Two hours p.i., all mice were euthanized by CO2/O2-asphyxiation. For two mice of each group (2 mice/ligand), background-subtracted fluorescence images were acquired with the IVIS imaging system (Xenogen VivoVision IVIS Lumina II, PerkinElmer), with a 640-nm excitation filter and a Cy5.5 emission filter and an acquisition time of 10 s. Next, µSPECT/CT imaging was performed in the same two mice per group, with a 1.0-mm diameter pinhole mouse collimator tube (U-SPECT II, MILabs). Mice were scanned for 30 min followed by a CT scan for anatomical reference (spatial resolution 160 μm, 615 μA, 65 kV). MILabs reconstruction software was used to reconstruct the µSPECT/CT scans, via an ordered-subset expectation maximization algorithm, energy windows 154–188 keV and 220–270 keV, 3 iterations, 16 subsets, and voxel size of 0.75 mm. SPECT/CT maximum intensity projections (MIPs) were created using the Inveon Research Workplace software (Siemens Preclinical Solutions, version 4.1). NIR fluorescence images were analyzed using Living Image software (PerkinElmer, version 4.2). After imaging, relevant tissues were dissected, weighed, and measured for radioactivity in a gamma-counter (2480 WIZARD^2 Automatic Gamma Counter, PerkinElmer). In addition, a blocking experiment with PSMA-N064 and PSMA-617 was performed. Full experimental procedures and results can be found in the supplementary data (Page 5, Supplementary Fig. 3).

[2] = ex vivo biodistribution of 111In-labeled ligands; design: species or system BALB/c nude mice; conditions: male, BALB/c nude, mouse, iv, 0.3 nmol, total radioactivity, 2 h p.i.; for tissue uptake at 2 h: 10 MBq/mouse, i.v.
Method: as §1, §2

[3] = tested on: LS174T-PSMA cells; experiment: in vitro binding and internalization assay; format: cell-based, human; conditions: 37 °C, 2 h
Method: The binding and internalization characteristics of the ligands were determined using LS174T-PSMA cells. Cells were cultured to confluency in 6-well plates followed by incubation with 50,000 counts per minute of ^111In-labeled ligand (0.1–0.25 pmol/well) in 1-ml RPMI + 0.5% BSA (37 °C, 2 h). Non-specific binding was determined by coincubation with 2(phosphonomethyl)-pentane-1,5-dioic acid (2-PMPA, 21.57 µM). PSMA-specific binding was defined as total binding minus the non-specific binding. To retrieve the membrane-bound fraction, cells were washed twice with PBS and incubated for 10 min at 0 °C with acid buffer (154-mM NaCl, 0.1 M acetic acid, pH 2.6). After incubation, the membrane-bound fraction was collected. Then, cells were washed and lysed with 0.1 M NaOH, and the cell lysate (intracellular activity) was collected. Intracellular and membrane-bound activity fractions were measured in a gamma-counter (2480 WIZARD^2 Automatic Gamma Counter, PerkinElmer).

[4] = tested on: LS174T-PSMA cells; experiment: in vitro targeted PDT assay (CellTiter-Glo); format: cell-based, human; conditions: 30 nM ligand, irradiated with 100 J/cm^2
Method: LS174T wildtype (LS174T-WT) and LS174T-PSMA cells were cultured to confluency in 48-well plates. Cells were incubated (2 h, 5% CO2, 37 °C) with 30-nM PSMA ligand in binding buffer (RPMI 1640 + 0.5% BSA) in triplicate. After washing with PBS, a 0.5-ml binding buffer was added to each well, and cells were irradiated with a NIR light-emitting diode (690 ± 20 nm). The typical forward voltage was 2.6 V creating a power output of 490 mW using 126 individual LED bulbs to ensure homogenous illumination of the area of interest predefined as 5 × 3 cm. The cells were irradiated at NIR radiant exposures of 100 J/cm^2 ([…]) and subsequently incubated for 1 h at 37 °C. Cells that only received the PSMA ligand, only the NIR light, or neither the ligand nor the light were included as controls. Cytotoxic effects of PDT with PSMA ligands were determined with a CellTiter-Glo™ assay (Promega Benelux) according to the manufacturer’s instructions. The binding buffer was replaced with 100-µl fresh binding buffer and 100-µl CellTiter-Glo® 2.0 Assay. Plates were shaken (2 min) and incubated for 10 min at room temperature. Next, luminescence was measured in a plate reader (Tecan Infinite® 200 PRO) to determine the metabolic activity of the cells.

In the case of `C[Si](C)(CCC[N+](CCCS(=O)(=O)[O-])(CCCS(=O)(=O)O)CCCS(=O)(=O)O)O[Si]1(O[Si](C)(C)CCC[N+](CCCS(=O)(=O)[O-])(CCCS(=O)(=O)O)CCCS(=O)(=O)O)n2c3c4ccccc4c2N=C2N=C(N=c4c5c(OCCCOC(=O)NCCCCCC(=O)NCCCC[C@H](NC(=O)CN6CCN(CC(=O)O)CCN(CC(=O)O)CCN(CC(=O)O)CC6)C(=O)NCCCC[C@H](NC(=O)[C@H](CCC(=O)O)NC(=O)c6ccccc6)C(=O)NC[C@H]6CC[C@H](C(=O)N[C@@H](Cc7ccc8ccccc8c7)C(=O)NCCCC[C@H](NC(=O)N[C@@H](CCC(=O)O)C(=O)O)C(=O)O)CC6)cccc5c(n41)=NC1=NC(=N3)c3ccccc31)c1ccccc12` [PSMA-N03], the “Biodistribution Kidney” value ([1]; 10 MBq/mouse, i.v., n=4) is reported as 142.4 ± 10.6 %ID/g, the “Biodistribution Tumor+ LS174T-PSMA” value ([1]; 10 MBq/mouse, i.v., n=4) is reported as 19.8 ± 1.9 %ID/g and the “Biodistribution Tumor+ LS174T-PSMA” value ([1]; 10 MBq/mouse, i.v., n=4, listed as N03) is reported as at least 20 %ID/g. It also gave a Tumor/Negative tumor ratio [1] of 19.9 ± 6.3, a Tumor/Prostate ratio [1] of 35.1 ± 10.7 and a Tumor/Salivary gland ratio [1] of 35.0 ± 5.0. For the same molecule, the tissue uptake at 2 h ([2]; LS174T wildtype tumor, n=4, read-out: Biodistribution Tumor- LS174T) was 1.1 ± 0.2 %ID/g, the tissue uptake at 2 h ([2]; LS174T-PSMA tumor, n=4, read-out: Biodistribution Tumor+ LS174T-PSMA) was 20 ± 2 %ID/g and the tissue uptake at 2 h ([2]; adrenals, n=4, read-out: Biodistribution Adrenals) was 2.1 ± 0.8 %ID/g. For the same molecule, the tissue uptake at 2 h ([2]; blood, n=4, read-out: Biodistribution Blood) was 0.7 ± 0.1 %ID/g, the tissue uptake at 2 h ([2]; bone marrow, n=4, read-out: Biodistribution Bone marrow) was 0.2 ± 0.1 %ID/g and the tissue uptake at 2 h ([2]; bone, n=4, read-out: Biodistribution Bone) was 0.5 ± 0.1 %ID/g. It also gave a tissue uptake at 2 h ([2]; duodenum, n=4, read-out: Biodistribution Duodenum) of 0.4 ± 0.03 %ID/g, a tissue uptake at 2 h ([2]; heart, n=4, read-out: Biodistribution Heart) of 0.4 ± 0.04 %ID/g and a tissue uptake at 2 h ([2]; kidney, n=4, read-out: Biodistribution Kidney) of 142 ± 11 %ID/g. For the same molecule, the tissue uptake at 2 h ([2]; liver, n=4, read-out: Biodistribution Liver) was 1.3 ± 0.1 %ID/g, the tissue uptake at 2 h ([2]; lung, n=4, read-out: Biodistribution Lung) was 1.8 ± 0.4 %ID/g and the tissue uptake at 2 h ([2]; muscle, n=4, read-out: Biodistribution Muscle) was 0.2 ± 0.1 %ID/g. It also gave a tissue uptake at 2 h ([2]; pancreas, n=4, read-out: Biodistribution Pancreas) of 0.3 ± 0.02 %ID/g, a tissue uptake at 2 h ([2]; prostate, n=4, read-out: Biodistribution Prostate) of 0.6 ± 0.2 %ID/g and a tissue uptake at 2 h ([2]; salivary glands, n=4, read-out: Biodistribution Salivary glands) of 0.6 ± 0.1 %ID/g. The tissue uptake at 2 h ([2]; spleen, n=4, read-out: Biodistribution Spleen) was 1.5 ± 0.4 %ID/g, the tissue uptake at 2 h ([2]; stomach, n=4, read-out: Biodistribution Stomach) was 0.6 ± 0.1 %ID/g and the tissue to tissue ratio at 2 h ([2]; tumor (LS174T-PSMA xenograft) / blood, read-out: Tumor/Blood ratio) was 27 ± 2.9. It also gave a tissue to tissue ratio at 2 h ([2]; tumor (LS174T-PSMA xenograft) / kidney, read-out: Tumor/Kidney ratio) of 0.2 ± 0.02, a tissue to tissue ratio at 2 h ([2]; tumor (LS174T-PSMA xenograft) / liver, read-out: Tumor/Liver ratio) of 15.1 ± 1.7 and a tissue to tissue ratio at 2 h ([2]; tumor (LS174T-PSMA xenograft) / spleen, read-out: Tumor/Spleen ratio) of 14.3 ± 4. For the same molecule, the “internalization percentage (percentage of cell-associated ligand that was internalized)” value [3] was 73–90% and the cell viability [4] was 25% ± 4%.
